Values belong to the binder of their own block, whether it stands above or below them.
Tests used:
mFc-tagged LAG-3 protein = target: T1, mFc-tagged LAG-3 protein (human, UniProt P18627 30-450); experiment: FACS competition: blocks mFc-tagged LAG-3 binding to MHC-II on Raji cells
T1 construct: also called human LAG-3 ECD with mouse Fc tag
T1 sequence: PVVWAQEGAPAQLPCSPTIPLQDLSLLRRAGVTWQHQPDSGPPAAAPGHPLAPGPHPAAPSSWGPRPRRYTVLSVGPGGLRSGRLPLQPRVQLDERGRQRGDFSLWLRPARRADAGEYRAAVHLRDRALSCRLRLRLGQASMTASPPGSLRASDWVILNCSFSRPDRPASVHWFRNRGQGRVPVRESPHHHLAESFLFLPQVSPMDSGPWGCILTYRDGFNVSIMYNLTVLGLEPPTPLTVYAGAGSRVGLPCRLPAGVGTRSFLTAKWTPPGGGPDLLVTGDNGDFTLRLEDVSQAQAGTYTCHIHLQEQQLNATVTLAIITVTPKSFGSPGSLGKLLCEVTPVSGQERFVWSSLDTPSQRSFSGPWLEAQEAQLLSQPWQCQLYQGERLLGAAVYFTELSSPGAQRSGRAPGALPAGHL
Experimental: Antibodies were serially diluted in 1% BSA-PBS and incubated with mFc-tagged LAG-3 protein at 4° C. for 30 min. The mixture was transferred into the 96-well plates seeded with Raji cells. Goat anti-mouse IgG Fc-PE antibody was used to detect the binding of LAG-3 protein to Raji cells. The MFI was evaluated by flow cytometry and analyzed by the software FlowJo (version 7.6.1).

[1] = target: T2, human LAG-3-ECD.D12.mFc mutant D131A (human, UniProt P18627 37-252); experiment: ELISA, antibody coated, LAG-3 D12.mFc mutant in supernatant, normalised to control mutants
T2 construct: Alanine scanning mutant; construct limits as for m26
T2 chain: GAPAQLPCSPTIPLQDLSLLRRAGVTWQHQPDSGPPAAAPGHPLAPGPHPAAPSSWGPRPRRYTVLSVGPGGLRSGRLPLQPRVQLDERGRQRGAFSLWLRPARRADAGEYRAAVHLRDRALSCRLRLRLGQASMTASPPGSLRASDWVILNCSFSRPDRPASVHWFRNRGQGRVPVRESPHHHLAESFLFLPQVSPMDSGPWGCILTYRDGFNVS
Outline: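 Antibody 1.53.3-uAb-IgG4k or 3.40.19-uAb-hIgG4L coated at 2 μg/mL, then exposed to supernatant containing quantified LAG-3 D12.mFc mutants. Detection with HRP anti-mFc (1:5000). Absorbance normalized to mean of control mutants; binding fold change <0.75 set as epitope cutoff.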

[2] = target: T3, full-length mouse LAG-3 on cells (mouse, UniProt Q61790 24-521); experiment: FACS on murine LAG-3-expressing Flp-In-CHO cells, MFI
T3 construct: also called mPro1.FL; murine LAG-3
T3 sequence: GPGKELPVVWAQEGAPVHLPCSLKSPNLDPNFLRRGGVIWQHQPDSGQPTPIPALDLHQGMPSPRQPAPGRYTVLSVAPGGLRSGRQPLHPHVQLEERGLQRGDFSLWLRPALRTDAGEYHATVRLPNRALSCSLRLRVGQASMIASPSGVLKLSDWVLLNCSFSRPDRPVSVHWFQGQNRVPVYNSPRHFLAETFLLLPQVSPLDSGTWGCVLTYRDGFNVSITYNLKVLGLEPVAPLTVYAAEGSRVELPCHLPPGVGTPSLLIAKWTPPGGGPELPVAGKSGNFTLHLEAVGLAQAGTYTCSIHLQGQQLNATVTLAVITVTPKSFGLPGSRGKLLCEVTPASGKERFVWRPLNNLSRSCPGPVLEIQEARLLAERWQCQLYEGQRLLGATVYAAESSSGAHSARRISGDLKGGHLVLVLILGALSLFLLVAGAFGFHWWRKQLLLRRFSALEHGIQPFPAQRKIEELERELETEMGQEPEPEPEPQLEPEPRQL
Experimental: Cross-reactivity to cynomolgus and murine LAG-3 was measured by FACS. Murine LAG-3-expressing Flp-In-CHO cells or cynomolgus LAG-3-expressing 293F cells were transferred into 96-well U-bottom plates at a density of 1×10⁵ cells/well. Testing antibodies were serially diluted in wash buffer (1×PBS/1%BSA) and incubated with cells at 4° C. for 1 h. After washing with 1×PBS/1%BSA, corresponding secondary antibody was applied and incubated with cells at 4 ° C. in the dark for 1 h. The cells were then washed and resuspended in 1×PBS/1%BSA and then analyzed by flow cytometry.

[3] = target: T4, full-length human LAG-3 on cells (human, UniProt P18627 23-525); experiment: FACS competition on Flp-In-293 cells expressing human LAG-3: biotinylated BMK1 at 1 ug/mL, serially diluted antibody, Streptavidin-PE
T4 construct: Expressed on Flp-In-293, CHO or 293F transfectants; also called hPro1.FL; cell surface human LAG-3
T4 sequence: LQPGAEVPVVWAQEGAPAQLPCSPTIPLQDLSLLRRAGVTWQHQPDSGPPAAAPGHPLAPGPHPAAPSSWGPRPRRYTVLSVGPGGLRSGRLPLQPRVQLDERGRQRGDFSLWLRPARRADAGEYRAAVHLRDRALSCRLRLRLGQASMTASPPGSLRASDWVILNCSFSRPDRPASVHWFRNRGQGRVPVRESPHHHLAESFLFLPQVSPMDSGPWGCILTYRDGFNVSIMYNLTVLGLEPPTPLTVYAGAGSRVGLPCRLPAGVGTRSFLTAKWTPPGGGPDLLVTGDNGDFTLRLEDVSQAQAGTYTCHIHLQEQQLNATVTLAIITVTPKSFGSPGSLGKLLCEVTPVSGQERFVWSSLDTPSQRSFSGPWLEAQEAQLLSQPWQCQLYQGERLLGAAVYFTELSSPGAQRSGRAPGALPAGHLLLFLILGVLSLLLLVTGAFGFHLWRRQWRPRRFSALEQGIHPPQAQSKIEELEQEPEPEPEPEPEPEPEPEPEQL
Experimental: The binding epitope of LAG-3 antibodies was binned against benchmark antibodies BMK1, BMK7 and BMK5 by FACS assay. Flp-In-293 cells expressing human LAG-3 at the cell surface were incubated with biotinylated benchmark antibodies at concentration of 1 μg/mL for 1 hour, followed by the adding of serially diluted LAG-3 antibodies. Streptavidin-PE antibody (Jackson Immunoresearch Lab) was used to detect the binding of benchmark antibodies to cells. The MFI was evaluated by flow cytometry and analyzed by FlowJo.

- EC50 (mFc-tagged LAG-3 protein): 0.67 nM
- Fold Change [1]: 0.045
B1: 3.40.19-uAb-IgG4L (antibody, V domains shown)
VH: QLQLQESGPGLVKPSETLSLTCTVSGDSISSTSYYWGWIRQPPGKGLEWIGSFYYSGSTYYNPSLKSRVTISVDTSKNQFSLKLNSVTAADTAVYYCARMQLWSYDVDVWGQGTTVTVSS
VL: QSALTQPASVSGSPGQSITISCTGTSSDVGGYDYVAWYQQHPGKVPKLMIYDVSERPSGVSNRFSGSKSGNTASLTISGLQAEDEADYYCSSYTSTTTLVVFGGGTKLSVL
notes: Fully human antibody from OMT rats; IgG4 lambda by its name; also called 3.40.19-uAb-hIgG4L

- EC50 (mFc-tagged LAG-3 protein): 0.8 nM
- binding result [2]: no binding (tested: 6.7 nM)
- IC50 (read off the curve) [3]: ~5 nM
B2: 1.53.3-uAb-IgG4k (antibody, V domains shown)
VH: QVQLQQWGAGLLKPSETLSLTCGVYGGSFSGYYWSWIRQPPGMGLEWIGEINHRGNTNYNPSLKSRVTISEDTSKNQFSLRLSSVTAADTAVYFCTRGEDYSDYDYYGDFWGQGTLVTVSS
VL: EIVLTQSPATLSLSQGERATLSCRASQSISSYLAWYQQKPGQAPRLLIYAASNRATGIPARFSGSGSGTDFTLTISSLEPEDFAIYYCQQRSNWPLTFGGGTKVEIK
notes: Fully human antibody from OMT rats; IgG4 kappa by its name
